In patent US20220009987A9, “HUMAN RESISTIN COMPOSITIONS AND METHODS OF TREATING TLR4-MEDIATED DISEASE AND INFECTION” (THE REGENTS OF THE UNIVERSITY OF CALIFORNIA, priority 2017, published 2022):
“Also recorded” adds a separate entry of the source.

Experiments:
human PBMCs = assay: Human PBMC functional assay, LPS-induced cytokine secretion (ELISA); type: cell-based
Method: Human PBMCs. Human buffy coat was purchased from Zen-bio. Buffy coat was overlaid on top of Histopaque-1077 and spun at 700g at 25° C. with no brake and PBMCs were recovered from the interphase. PBMCs were plated in 96-well plates and stimulated with mammalian-derived human resistin (1 μg/mL, LifeSpan Biosciences) or hRetn N-peptide (1 μg/mL). After 24 hours, ultrapure LPS (100 ng/mL, Invivogen) was added and supernatants recovered for ELISA at 24 hours. Where indicated, cells were incubated for 4 hours with STAT3 (5, 15-DPP, 50 μM) or TBK1 (BX-795, 1 μM) inhibitors prior to hRetn treatment. For the hRetn competitive binding assay, 1×10^6 cells were incubated with recombinant hRetn (0.5 μg), washed in PBS then incubated with 0.5 μg LPS-biotin (incubations were 30 minutes on ice). Cells were washed in FACS buffer, treated with Fc block, and stained with BV605-conjugated streptavidin and α-human primary antibodies: CD14 (clone M5E2), CD11 b (clone M1/70) and MD2/TLR4 (clone HTA125) purchased from Affymetrix.
Cytokine Quantification. Sandwich ELISAs were performed using capture and biotinylated antibodies for human resistin (Peprotech), IL-10 and TNFα (BD Biosciences) according to manufacturer's instructions. Detection was performed with streptavidin-peroxidase (Jackson ImmunoResearch) and TMB peroxidase substrate (BD Biosciences), followed by addition of 2N H2SO4. Optical density (OD) was captured at 450 nm. Samples were compared to serial-fold dilution of recombinant protein. For Luminex, inflammatory cytokine kits (Affymetrix) were run according to manufacturer's instructions and quantified on Luminex MagPix (Luminex Corp.). For cytokine bead array, cytokine kits from BD Bioscience were run according to manufacturer's instructions on BD LSRII and analyzed using FCAP Array Software.

C57BL/6 mice = assay: LPS-induced endotoxic shock model with recombinant hRetn treatment; type: in vivo, mouse; details: for survival after LPS injection: 0.5 μg hRetn i.p. prior to LPS, vs PBS control
Description: Mice. Human resistin transgenic mice were generated on a mouse Retn−/− background as previously described in Park et al., 2011, “Inflammatory induction of human resistin causes insulin resistance in endotoxemic mice,” Diabetes 60(3):775-783, the entire content of which is herein incorporated by reference. Briefly, the human resistin gene, along with 21,300 bp upstream and 4,248 bp downstream of the human resistin start site were inserted through a bacterial artificial chromosome (BAC). Genome insertion of hRETN in the two transgenic mouse lines was determined by Dartmouse™, which sequences and analyzes thousands of SNPs throughout the mouse genome. For the endotoxic shock model, mice were injected i.p. with two doses of LPS (Sigma): 0.05 mg/kg LPS followed by 12 mg/kg LPS (females) or 20 mg/kg LPS (males) 12 hours later. Mice were monitored at least twice a day and euthanized according to humane endpoints. For treatment with recombinant resistin, C57BL/6 mice were injected i.p. with PBS or 0.5 μg hRetn (Peprotech). Nippostrongylus brasiliensis life cycle was maintained in Sprague-Dawley rats, as previously described in Jang et al., 2015, “Macrophage-derived human resistin is induced in multiple helminth infections and promotes inflammatory monocytes and increased parasite burden,” PLoS Pathog 11(1):e1004579, the entire content of which is herein incorporated by reference. Mice were anesthetized with isoflurane and injected subcutaneously with 500 L3 larvae. Serum collection was by retro-orbital bleeding and body temperature was measured by rectal thermometer (Braintree Scientific). All animals in the experiment were age-matched (6-8 week old), gender-matched and housed in a specific pathogen free facility.
Vascular Permeability Assay. Evan's blue dye was used to measure vascular permeability. Mice were anesthetized by isoflurane and 200 μL of 0.5% Evan's Blue dye in PBS was injected reto-orbitally. After 10 minutes, mice were euthanized by CO2 and perfused with 20 mL PBS. Tissue was excised, weighed and incubated with 500 μL N, N-dimethylformamide (Sigma) for 24 hours at 55° C. Extracted Evan's blue was measured at 610 nm according to a standard curve.
Binding Assay and Flow Cytometry. Single cell suspension of lung tissue was prepared and hRetn binding was measured as previously described in Jang et al., 2015, supra. Briefly, dissociated lung cells were incubated for 1 hour at 4° C. with 0.5 μg recombinant hResistin (Peprotech) or PBS, followed by 2× wash in FACS buffer, incubation with Fc block (5 μg/mL αCD16/32 and 10 μg/mL purified rat IgG1, 5 min at 4° C.). Cells were stained with biotinylated α-hRetn (Peprotech, 30 min at 4° C.) followed by detection with BV605-conjugated streptavidin (BD) and surface marker antibodies. To collect peritoneal exudate cells (PECs), the peritoneal cavity was washed and PECs recovered in 5 mL ice cold PBS. Surface marker antibodies were: F4/80 (clone A3-1), SiglecF (clone E50-2440), CD4 (clone RM4-5), Ly6C (HK1.4), CD11b (clone M1/70), CD11c (clone N418), Ly6G (clone 1A8), MHCII (clone M5/114.15.2) and CD3e (clone 145-2C11), CD115 (clone AFS98), purchased from Affymetrix, BD Biosciences or Biolegend. Cell populations were determined as follows: peritoneal macrophage (F4/80+CD11b+), neutrophils (Ly6G+CD11b+), eosinophils (SiglecF+CD11c−) and monocyte (Ly6C+CD11b+), alveolar macrophages (F4/80+CD11c+). For flow cytometric analysis, all samples were run on the BD LSRII and analyzed on FlowJo (v10).
Cytokine Quantification. Sandwich ELISAs were performed using capture and biotinylated antibodies for human resistin (Peprotech), IL-10 and TNFα (BD Biosciences) according to manufacturer's instructions. Detection was performed with streptavidin-peroxidase (Jackson ImmunoResearch) and TMB peroxidase substrate (BD Biosciences), followed by addition of 2N H2SO4. Optical density (OD) was captured at 450 nm. Samples were compared to serial-fold dilution of recombinant protein. […]

[1] = human PBMC, pre-treatment then LPS 100 ng/mL
[2] = peritoneal exudate cells, flow cytometry

B1: hRetn: human resistin protein (hRetn) having an amino acid sequence of SEQ ID NO: 1; recombinant, E. coli-derived or 293T cell-derived (protein, listed as Homo sapiens)
chain: MKALCLLLLPVLGLLVSSKTLCSMEEAINERIQEVAGSLIFRAISSIGLECQSVTSRGDLATCPRGFAVTGCTCGSACGSWDVRAETTCHCQCAGMDWTGARCCRVQP
hRetn functional effect on TNFα and IL-10 when STAT3 signaling was inhibited (human PBMCs; human PBMC, 5,15-DPP 50 μM 4 hours prior to hRetn): also abrogated | hRetn functional effect on TNFα and IL-10 in the presence of TBK1 inhibitor (human PBMCs; human PBMC, BX-795 1 μM 4 hours prior to hRetn): abrogated | IL-10 expression after LPS (human PBMCs; [1]): increased IL-10 expression | LPS-induced TNFα secretion (human PBMCs; [1]): significantly more TNFα than cells treated with hRetn and LPS; also recorded: significantly reduced LPS-induced TNFα secretion | survival after LPS injection (C57BL/6 mice; listed as recombinant hRetn): protected C57BL/6 mice against LPS-induced mortality; also recorded: resistant to LPS-induced mortality | survival after LPS injection (C57BL/6 mice; listed as recombinant hRetn protein): protected against an otherwise lethal dose of LPS | IFNγ level (C57BL/6 mice; 6 hours after LPS): significant reduction | IL-6 level (C57BL/6 mice; 6 hours after LPS): significant reduction | IL-10 expression (C57BL/6 mice; 6 hours after LPS): no change | TNFα level (C57BL/6 mice; 6 hours after LPS): significant reduction | lung vascular permeability (Evan's blue dye) (C57BL/6 mice; 6 hours after LPS): significantly reduced LPS-induced vascular permeability | rectal body temperature (LPS-induced temperature drop) (C57BL/6 mice; 6 hours after LPS): modest protection from the LPS-induced temperature drop | LPS-induced neutrophils in the peritoneal cavity (C57BL/6 mice; [2]): significantly reduced LPS-induced neutrophils in the peritoneal cavity | monocytes in the peritoneal cavity (C57BL/6 mice; [2]): increased monocytes
